Data from US20220227845A1.

B1: PentaNAb2.0 ScFv (10E8v4_S100cF-5X-35O22-5X-N6-5X-PGT121-5X-VRC26.25-His) (scFv)
scFv: SELTQDPAVSVALKQTVTITCRGDSLRSHYASWYQKKPGQAPVLLFYGKNNRPSGIPDRFSGSASGNRASLTITGAQAEDEADYYCSSRDKSGSRLSVFGGGTKLTVLGGGGSGGGGSGGGGSEVRLVESGGGLVKPGGSLRLSCSASGFDFDNAWMTWVRQPPGKGLEWVGRITGPGEGWSVDYAESVKGRFTISRDNTKNTLYLEMNNVRTEDTGYYFCARTGKYYDFWFGYPPGEEYFQDWGQGTLVIVSSGGGGSGGGGSGGGGSGGGGSGGGGSQSVLTQSASVSGSLGQSVTISCTGPNSVCCSHKSISWYQWPPGRAPTLIIYEDNERAPGISPRFSGYKSYWSAYLTISDLRPEDETTYYCCSYTHNSGCVFGTGTKVSVLGGGGSGGGGSGGGGSQGQLVQSGAELKKPGASVKISCKTSGYRFNFYHINWIRQTAGRGPEWMGWISPYSGDKNLAPAFQDRVIMTTDTEVPVTSFTSTGAAYMEIRNLKFDDTGTYFCAKGLLRDGSSTWLPYLWGQGTLLTVSSGGGGSGGGGSGGGGSGGGGSGGGGSYIHVTQSPSSLSVSIGDRVTINCQTSQGVGSDLHWYQHKPGRAPKLLIHHTSSVEDGVPSRFSGSGFHTSFNLTISDLQADDIATYYCQVLQFFGRGSRLHIKGGGGSGGGGSGGGGSRAHLVQSGTAMKKPGASVRVSCQTSGYTFTAHILFWFRQAPGRGLEWVGWIKPQYGAVNFGGGFRDRVTLTRDVYREIAYMDIRGLKPDDTAVYYCARDRSYGDSSWALDAWGQGTTVVVSAGGGGSGGGGSGGGGSGGGGSGGGGSSDISVAPGETARISCGEKSLGSRAVQWYQHRAGQAPSLIIYNNQDRPSGIPERFSGSPDSPFGTTATLTITSVEAGDEADYYCHIWDSRVPTKWVFGGGTTLTVLGGGGSGGGGSGGGGSQMQLQESGPGLVKPSETLSLTCSVSGASISDSYWSWIRRSPGKGLEWIGYVHKSGDTNYSPSLKSRVNLSLDTSKNQVSLSLVAATAADSGKYYCARTLHGRRIYGIVAFNEWFTYFYMDVWGNGTQVTVSSGGGGSGGGGSGGGGSGGGGSGGGGSQSVLTQPPSVSAAPGQKVTISCSGNTSNIGNNFVSWYQQRPGRAPQLLIYETDKRPSGIPDRFSASKSGTSGTLAITGLQTGDEADYYCATWAASLSSARVFGTGTKVIVLVGGGGSGGGGSGGGGSQVQLVESGGGVVQPGTSLRLSCAASQFRFDGYGMHWVRQAPGKGLEWVASISHDGIKKYHAEKVWGRFTISRDNSKNTLYLQMNSLRPEDTALYYCAKDLREDECEEWWSDYYDFGKQLPCAKSRGGLVGIADNWGQGTMVTVSSGSGHHHHHH
B2: 35O22 (antibody, V domains shown)
VH: QGQLVQSGAELKKPGASVKISCKTSGYRFNFYHINWIRQTAGRGPEWMGWISPYSGDKNLAPAFQDRVIMTTDTEVPVTSFTSTGAAYMEIRNLKFDDTGTYFCAKGLLRDGSSTWLPYLWGQGTLLTVSS
VL: QSVLTQSASVSGSLGQSVTISCTGPNSVCCSHKSISWYQWPPGRAPTLIIYEDNERAPGISPRFSGYKSYWSAYLTISDLRPEDETTYYCCSYTHNSGCVFGTGTKVSVL

Molecular target: HIV-1 Env of the 208-pseudovirus panel (Table 1)
Test: cell-based or functional assay

Row | Binder | IC50 geomean, neutralization of 208-virus panel [ng/mL] | virus isolate coverage (neutralization breadth), 208-virus panel [%]
1 | B1 | 6 | 99.6
2 | B2 | – | 45.2
